Data: the supplement of paper PMC7877785
± gives the uncertainty stated by the source.

Assay: self-splicing fitness, log relative to wild type (ln ratio); higher = more splicing; Tetrahymena group I intron in knt gene, E. coli kanamycin selection, DiMSum; sequences stand for … in CUCUCU…GGAGGGAAAAGUUAUCAGGCAUGCACCUGGUAGCUAGUCUUUAAACCAAUAGAUUGCAUCGGUUUAAAAGGCAAGACCGUCAAAUUGCGGGAAAGGGGUCAACAGCCGUUCAGUACCAAGUCUCAGGGGAAACUUUGAGAUGGCCUUGCAAAGGGUAUGGUAAUAAGCUGACGGACAUGGUCCUAACCACGCAGCCAAGUCCUAAGUCAACAGAUCUUCUGUUGAUAUGGAUGCAGUUCACAGACUAAAUGUCGGUCGGGGAAGAUGUAUUCUUCUCAUAAGAUAUAGUCGGACCUCUCCUUAAUGGGAGCUAGCGGAUGAAGUGAUGCAACACUGGAGCCGCUGGGAACUAAUUUGUAUGCGAAAGUAUAUUGAUUAGUUUUGGAGUACUCGUGGUCG
In short: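 Six replicate transformations of E. coli BL21(DE3) with a pET-22b(+) library were grown overnight at 37°C or 30°C. The library randomised all eight P1ex-region intron nucleotides, the intron lying in the knt kanamycin-resistance gene, and plates were LB agar with or without 25 μg/mL kanamycin plus 100 μg/mL carbenicillin, 50 μM IPTG and 0.2% rhamnose. Pooled colonies were amplicon-sequenced on an Illumina HiSeq 2500, and fitness is the DiMSum error-weighted combination of wild-type-normalised replicate fold changes, kanamycin versus none.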

Sequence	self-splicing fitness (ln) (30 °C)	self-splicing fitness (ln) (37 °C)
GAGAAGCAAUAUUACGAAGA	-1.43 ± 0.28	-1.67 ± 0.26
GAGAAGCAAUAUUACGACAC	-0.317 ± 0.15	0.578 ± 0.18
GAGAAGCAAUAUUACGACGG	-3.47 ± 0.29	-1.97 ± 0.23
GAGAAGCAAUAUUACGACUC	-2.38 ± 0.18	-1.82 ± 0.23
GAGAAGCAAUAUUACGAGAG	-2.86 ± 0.23	-1.91 ± 0.22
GAGAAGCAAUAUUACGAGCG	-1.15 ± 0.16	-0.106 ± 0.18
GAGAAGCAAUAUUACGAGGC	-3.35 ± 0.21	-1.78 ± 0.17
GAGAAGCAAUAUUACGCAAU	-3.12 ± 0.17	-1.52 ± 0.14
GAGAAGCAAUAUUACGCACA	-0.725 ± 0.19	0.27 ± 0.25
GAGAAGCAAUAUUACGCAGA	-2.84 ± 0.17	-1.8 ± 0.19
GAGAAGCAAUAUUACGCCAU	-2.68 ± 0.38	-1.87 ± 0.35
GAGAAGCAAUAUUACGCCUA	-0.659 ± 0.15	-1.03 ± 0.14
GAGAAGCAAUAUUACGCGAG	-1.75 ± 0.086	-0.918 ± 0.078
GAGAAGCAAUAUUACGCGCA	-0.304 ± 0.11	0.342 ± 0.12
GAGAAGCAAUAUUACGGACG	-0.812 ± 0.12	-0.528 ± 0.2
GAGAAGCAAUAUUACGUACA	-0.535 ± 0.066	-0.692 ± 0.077
GAGAAGCAAUAUUACGUAGG	-3.2 ± 0.23	-0.924 ± 0.15
GAGAAGCAAUAUUACGUUUC	-3.64 ± 0.32	-3.08 ± 0.27
GAGCAGCAAUAUUACGAAUG	-3.81 ± 0.2	-1.94 ± 0.14
GAGCAGCAAUAUUACGACAG	-3.25 ± 0.21	-2.6 ± 0.27
GAGCAGCAAUAUUACGACGU	-0.383 ± 0.072	-0.812 ± 0.079
GAGCAGCAAUAUUACGAGUA	-2.42 ± 0.34	-1.92 ± 0.26
GAGCAGCAAUAUUACGAGUC	-1.91 ± 0.12	-1.92 ± 0.17
GAGCAGCAAUAUUACGAUAC	-1.61 ± 0.12	-1.45 ± 0.15
GAGCAGCAAUAUUACGCACC	-2.67 ± 0.39	-1.82 ± 0.48

Sequence	self-splicing fitness (ln) (30 °C)	self-splicing fitness (ln) (37 °C)
GAGCAGCAAUAUUACGCCCC	-2.24 ± 0.47	
GAGCAGCAAUAUUACGCCCU	-0.964 ± 0.31	
GAGCAGCAAUAUUACGCCGC	-1.63 ± 0.22	-2.43 ± 0.38
GAGCAGCAAUAUUACGCGAG	-2.38 ± 0.14	-0.876 ± 0.12
GAGCAGCAAUAUUACGCGAU	-4.28 ± 0.33	-0.0586 ± 0.21
GAGCAGCAAUAUUACGCUAC		-1.95 ± 0.33
GAGCAGCAAUAUUACGCUUU	-1.94 ± 0.18	-2.5 ± 0.26
GAGCAGCAAUAUUACGGACU	-1.32 ± 0.082	-0.127 ± 0.11
GAGCAGCAAUAUUACGGCGC	-0.751 ± 0.12	0.209 ± 0.17
GAGCAGCAAUAUUACGGGCG	-2.09 ± 0.14	-0.811 ± 0.16
GAGCAGCAAUAUUACGGUUA	-0.804 ± 0.1	-0.875 ± 0.1
GAGCAGCAAUAUUACGUACA	-1.06 ± 0.22	-0.116 ± 0.17
GAGCAGCAAUAUUACGUAGU	-3.35 ± 0.19	-1.01 ± 0.15
GAGCAGCAAUAUUACGUCAU	-2.38 ± 0.12	-1.02 ± 0.13
GAGCAGCAAUAUUACGUCUA	0.0729 ± 0.12	0.0653 ± 0.13
GAGCAGCAAUAUUACGUGCG	-1.65 ± 0.12	-1.25 ± 0.11
GAGCAGCAAUAUUACGUGGA	-3.09 ± 0.22	-1.69 ± 0.15
GAGCAGCAAUAUUACGUGGU	-3.66 ± 0.25	-2.25 ± 0.23
GAGCAGCAAUAUUACGUGUU	-3.3 ± 0.33	-2.81 ± 0.22
GAGCAGCAAUAUUACGUUAA	-3.53 ± 0.27	-0.69 ± 0.13
GAGCAGCAAUAUUACGUUAG	-2.57 ± 0.16	-1.93 ± 0.19
GAGGAGCAAUAUUACGAACG	-2.65 ± 0.22	-1.54 ± 0.25
GAGGAGCAAUAUUACGACAG	-1.38 ± 0.36	-1.5 ± 0.39
GAGGAGCAAUAUUACGACUC	-3.04 ± 0.27	-2.25 ± 0.31
GAGGAGCAAUAUUACGAGAU	-2.78 ± 0.32	

Sequence	self-splicing fitness (ln) (30 °C)	self-splicing fitness (ln) (37 °C)
GAGGAGCAAUAUUACGAGGG		-1.96 ± 0.41
GAGGAGCAAUAUUACGAGGU	-2.71 ± 0.24	-3.09 ± 0.25
GAGGAGCAAUAUUACGAUUA	-1.73 ± 0.15	-1.8 ± 0.13
GAGGAGCAAUAUUACGCACG		-0.155 ± 0.47
GAGGAGCAAUAUUACGCCAC		-2.39 ± 0.37
GAGGAGCAAUAUUACGCCUC		-2.29 ± 0.42
GAGGAGCAAUAUUACGCCUG	-2.07 ± 0.41	-1.3 ± 0.44
GAGGAGCAAUAUUACGCGAA	-2.67 ± 0.35	-2.05 ± 0.3
GAGGAGCAAUAUUACGCUUU		-2.06 ± 0.41
GAGGAGCAAUAUUACGGACA	-3.15 ± 0.33	-1.96 ± 0.3
GAGGAGCAAUAUUACGGGCG	-2.68 ± 0.32	-1.56 ± 0.24
GAGGAGCAAUAUUACGGUCA	-2.76 ± 0.21	-2.19 ± 0.21
GAGGAGCAAUAUUACGGUGG	-2.76 ± 0.2	
GAGGAGCAAUAUUACGGUGU	-3.56 ± 0.27	-1.59 ± 0.21
GAGGAGCAAUAUUACGGUUC		-3.2 ± 0.35
GAGGAGCAAUAUUACGUCGU	-0.318 ± 0.28	-2.14 ± 0.34
GAGGAGCAAUAUUACGUGAG	-3.37 ± 0.4	-2.22 ± 0.26
GAGUAGCAAUAUUACGACGA	-0.0886 ± 0.15	-0.664 ± 0.12
GAGUAGCAAUAUUACGCAGG	-3.04 ± 0.22	-3.26 ± 0.24
GAGUAGCAAUAUUACGCAUU	-3.07 ± 0.13	-2.07 ± 0.12
GAGUAGCAAUAUUACGCCUU	-3.2 ± 0.23	-0.976 ± 0.24
GAGUAGCAAUAUUACGCGUG	-2.16 ± 0.08	-0.531 ± 0.089
GAGUAGCAAUAUUACGCUAU	-3.73 ± 0.27	
GAGUAGCAAUAUUACGGACA	-1.44 ± 0.087	-0.816 ± 0.082
GAGUAGCAAUAUUACGGACG	-3.14 ± 0.28	-0.531 ± 0.2

Sequence	self-splicing fitness (ln) (30 °C)	self-splicing fitness (ln) (37 °C)
GAGUAGCAAUAUUACGGCAC	-0.661 ± 0.2	-0.256 ± 0.21
GAGUAGCAAUAUUACGGGCU	-1.43 ± 0.17	-1.94 ± 0.16
GAGUAGCAAUAUUACGGUUC	-1.02 ± 0.12	-2.36 ± 0.3
GAGUAGCAAUAUUACGUAGC	-2.44 ± 0.34	
GAGUAGCAAUAUUACGUAUU	-3.24 ± 0.16	-1.79 ± 0.11
GAGUAGCAAUAUUACGUGAA	-2.5 ± 0.16	-1.95 ± 0.15
GAGUAGCAAUAUUACGUGAG	-2.5 ± 0.081	-1.28 ± 0.12
GAGUAGCAAUAUUACGUGGA	-3.37 ± 0.28	-2.52 ± 0.17
GAGUAGCAAUAUUACGUGUC	-1.73 ± 0.16	-1.53 ± 0.26
GAGUAGCAAUAUUACGUGUU	-3.05 ± 0.12	-1.12 ± 0.1
GAGUAGCAAUAUUACGUUAU	-2.9 ± 0.23	-2.12 ± 0.21
GAGUAGCAAUAUUACGUUCC	-1.88 ± 0.46	
GAGUAGCAAUAUUACGUUCU	-2.18 ± 0.18	-2.56 ± 0.21
GAGUAGCAAUAUUACGUUUA	-3.09 ± 0.25	-1.63 ± 0.19
GAUAAGCAAUAUUACGAAAC	-2.38 ± 0.2	-0.746 ± 0.19
GAUAAGCAAUAUUACGAAAG	-2.76 ± 0.18	-1.66 ± 0.21
GAUAAGCAAUAUUACGAACA	-1.02 ± 0.092	-0.468 ± 0.097
GAUAAGCAAUAUUACGACAA	-1.46 ± 0.11	-0.276 ± 0.14
GAUAAGCAAUAUUACGACGG	-2.96 ± 0.17	-2.34 ± 0.27
GAUAAGCAAUAUUACGAGAA		-1.38 ± 0.38
GAUAAGCAAUAUUACGAUAA	-1.46 ± 0.13	0.344 ± 0.13
GAUAAGCAAUAUUACGAUCA	-1.33 ± 0.1	-0.134 ± 0.1
GAUAAGCAAUAUUACGCGCA	-0.808 ± 0.085	0.383 ± 0.13
GAUAAGCAAUAUUACGCUUG	-2.05 ± 0.1	-0.952 ± 0.1
GAUAAGCAAUAUUACGGACA	-1.39 ± 0.09	-0.559 ± 0.088
